Measured values taken from article PMC10269845, “Hijacking of Host Plasminogen by Mesomycoplasma (Mycoplasma) hyopneumoniae via GAPDH: an Important Virulence Mechanism To Promote Adhesion and Extracellular Matrix Degradation” (Microbiology Spectrum, 2023).

Target: plasminogen (UniProt P00747 20-810)
Assay: SPR
Conditions: both partners purified

Chain of plasminogen (P00747 20-810): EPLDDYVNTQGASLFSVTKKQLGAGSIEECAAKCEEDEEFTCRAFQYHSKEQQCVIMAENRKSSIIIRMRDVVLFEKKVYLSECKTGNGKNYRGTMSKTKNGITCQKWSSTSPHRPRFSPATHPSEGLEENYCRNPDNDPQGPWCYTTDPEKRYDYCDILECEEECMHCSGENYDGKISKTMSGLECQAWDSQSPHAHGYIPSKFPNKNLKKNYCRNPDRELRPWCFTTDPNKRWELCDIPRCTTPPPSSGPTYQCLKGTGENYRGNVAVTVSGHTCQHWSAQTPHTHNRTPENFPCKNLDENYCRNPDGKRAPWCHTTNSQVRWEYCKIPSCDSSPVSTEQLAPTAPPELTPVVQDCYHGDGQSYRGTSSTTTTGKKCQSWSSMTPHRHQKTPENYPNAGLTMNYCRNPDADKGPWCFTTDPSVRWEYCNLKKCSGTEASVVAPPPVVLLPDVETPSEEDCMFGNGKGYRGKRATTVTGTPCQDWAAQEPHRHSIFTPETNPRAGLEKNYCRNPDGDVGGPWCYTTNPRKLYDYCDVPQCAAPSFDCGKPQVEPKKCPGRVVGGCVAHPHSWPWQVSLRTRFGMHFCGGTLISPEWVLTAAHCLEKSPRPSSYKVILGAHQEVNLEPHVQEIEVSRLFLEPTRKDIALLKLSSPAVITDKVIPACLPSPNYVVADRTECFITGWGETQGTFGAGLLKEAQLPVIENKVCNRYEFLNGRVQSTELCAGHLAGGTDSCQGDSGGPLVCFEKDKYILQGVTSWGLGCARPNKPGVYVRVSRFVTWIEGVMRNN

B1: Recombinant glyceraldehyde-3-phosphate dehydrogenase (GAPDH) of Mesomycoplasma (Mycoplasma) hyopneumoniae strain 168 (enzyme)
chain: MKKIAINGFGRIGRLALRRLFEVNDENLQVVAINDLTDASVLAHLFKYDSAHGKFNGEVEVLKDNGKNYLKIKGQKILVLSERDPKSLPWGQLGIDLVVECTGFFASKSGASQHLEAGAKKVIISAPAGNDVKTIVYNVNCDTITEDDRILSSASCTTNALAPLVNALDKEFGINHGFMTTIHAYTADQRLQDAPHGDLRRARAAGVNLVPSSTGAAKAIGLVVPSLTGKLDGIAIRVPVITGSFVDLSVELKSNPSIEEINQKMREYANESFAYCDEPIVSSDIIGDRHGSIFDATLTKYIEANGKRLYKLYTWYDNEYSFVSQFVRVIRDFVQK
notes: also called rGAPDH; source: E. coli BL21(DE3), pET-32a, purified (Ni resin FF)
For B1, the Kd was 376 nM.
